Measurements from patent US20250043302A1, “MUTATED HYDROXYPHENYLPYRUVATE DIOXYGENASE POLYPEPTIDE, AND CODING GENE AND USE THEREOF” (BEIJING DABEINONG BIOTECHNOLOGY CO., LTD., priority 2021, published 2025).

Key:
Assay type in all cases: in vivo
[1] = system: Arabidopsis thaliana T1 plants; assay: Mesotrione tolerance of transgenic Arabidopsis thaliana T1 plants (spray, bleached leaf area grade, damage score); set-up: Scores: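 damage score 0-100 computed as Σ(N×S)/(T×M)×100 over grades 0-3 with higher meaning more damage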; conditions: Arabidopsis thaliana T1 plants; for Grade 0 (classification and statistics of the grade of pesticide damage; number of plants) / Grade 1 (classification and statistics of the grade of pesticide damage; number of plants) / Grade 2 (classification and statistics of the grade of pesticide damage; number of plants) / Grade 3 (classification and statistics of the grade of pesticide damage; number of plants): 16 plants
How it was run: (§1)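 Read-out: per-plant damage grade 0–3 from proportion of bleached leaf area at 7 DAT (1 <50%, 2 >50%, 3 100%). Plants were T1 transformants, glufosinate-selected, plus wild-type CK, sprayed 18 days post-sowing. Rates: topramezone 25–200, isoxaflutole 35–280, mesotrione 52.5–420 g ai/ha.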

[2] = system: Arabidopsis thaliana T1 plants; assay: Topramezone tolerance of transgenic Arabidopsis thaliana T1 plants (spray, bleached leaf area grade, damage score); conditions: 7 DAT, Table 4; for Classification and statistics of the grade of pesticide damage: Grade 0 / Classification and statistics of the grade of pesticide damage: Grade 1 / Classification and statistics of the grade of pesticide damage: Grade 2 / Classification and statistics of the grade of pesticide damage: Grade 3: number of plants; for Scores: pesticide damage score 0-100
How it was run: as §1

[3] = system: Arabidopsis thaliana T1 plants; assay: Isoxaflutole tolerance of transgenic Arabidopsis thaliana T1 plants (spray, bleached leaf area grade, damage score); set-up: Scores (pesticide damage): scale not given here; conditions: spray, Arabidopsis thaliana T1 plants; for Classification and statistics of the grade of pesticide damage: Grade 0 (number of plants) / Classification and statistics of the grade of pesticide damage: Grade 1 (number of plants) / Classification and statistics of the grade of pesticide damage: Grade 2 (number of plants) / Classification and statistics of the grade of pesticide damage: Grade 3 (number of plants): 16 plants
How it was run: as §1

[4] = isoxaflutole 35 g ai/ha (0.5x field concentration)
[5] = isoxaflutole 70 g ai/ha (1x field concentration)

B1: ZmHPPDm-F372A-F383W-02: nucleotide sequence encoding Zea mays HPPD with F372A+F383W; vector DBN11769 (nucleic acid)
DNA: ATGCCACCCACACCCACAGCAGCAGCGGCGGGCGCAGCGGTCGCAGCGGCGTCAGCGGCGGAGCAAGCGGCGTTCAGATTGGTTGGTCACCGCAACTTCGTGAGATTCAATCCTCGCTCAGATAGATTCCATACTCTGGCCTTCCACCATGTTGAGCTTTGGTGCGCTGATGCTGCTTCTGCTGCTGGAAGGTTCAGCTTCGGTTTGGGTGCTCCCCTCGCTGCTAGATCTGATTTGAGCACTGGTAACTCAGCACATGCTTCCCTCCTGCTTAGATCTGGCTCTCTGAGCTTCCTTTTCACTGCTCCATATGCTCATGGTGCTGATGCTGCTACAGCTGCTCTCCCTTCATTCTCCGCTGCTGCTGCTAGGAGATTCGCTGCTGATCACGGATTGGCTGTGAGGGCTGTTGCACTTAGAGTTGCTGATGCTGAGGAGGCCTTCCGCACCTCTGTTGCTGCTGGAGCCAGACCAGCTTTCGGACCTGTTGATCTCGGAAGGGGTTTCCGCCTGGCTGAGGTGGAGCTTTACGGCGATGTGGTTCTGCGCTACGTTAGCTATCCTGATGGTGCTGCTGGTGAACCTTTCCTTCCAGGATTCGAGGGTGTGGCCTCACCAGGTGCCGCTGATTACGGCCTGTCCAGATTCGACCACATTGTTGGAAATGTTCCTGAGCTTGCTCCAGCTGCTGCCTACTTCGCTGGCTTCACCGGATTCCATGAGTTCGCCGAGTTCACCACTGAGGATGTGGGAACTGCTGAGTCTGGTTTGAATAGCATGGTGCTCGCCAACAATTCAGAGAACGTTTTGCTCCCTCTGAATGAGCCCGTGCACGGAACAAAGAGAAGGTCCCAGATTCAAACCTTCTTGGATCACCACGGCGGCCCAGGTGTTCAGCATATGGCTCTCGCCTCCGATGACGTGTTGAGAACCCTCAGGGAGATGCAAGCCAGGTCTGCTATGGGTGGCTTCGAGTTCATGGCCCCACCTACAAGCGATTACTATGATGGTGTGCGCAGAAGGGCTGGCGACGTTCTTACCGAGGCTCAGATCAAGGAGTGCCAAGAGCTGGGCGTGCTTGTTGATAGAGATGACCAGGGAGTTCTGCTTCAAATTGCTCCCAAGCCAGTGGGCGACAGGCCTACTTTGTGGCTCGAGATTATCCAGAGAATCGGATGCATGGAGAGGGATGAGAAGGGTCAGGAGTACCAAAAGGGAGGTTGCGGCGGATTCGGCAAGGGAAATTTCTCACAACTCTTCAAGTCCATCGAGGACTATGAAAAGAGTCTGGAAGCGATGCAGGCAGCAGCAGCAGCAACCGCACAGGGGTCGTGA
modifications: ZmHPPDm-F372A-F383W-02 Nucleotide Sequence
notes: vector DBN11769
With B1 the Resistance evaluation ([1]; mesotrione 52.5 g ai/ha) was “Highly resistant”, the Scores ([1]; mesotrione 52.5 g ai/ha) was 15 and the “Grade 0 (classification and statistics of the grade of pesticide damage; number of plants)” value ([1]; mesotrione 52.5 g ai/ha) was 9. The “Grade 1 (classification and statistics of the grade of pesticide damage; number of plants)” value ([1]; mesotrione 52.5 g ai/ha) was 7, the “Grade 2 (classification and statistics of the grade of pesticide damage; number of plants)” value ([1]; mesotrione 52.5 g ai/ha) was 0 and the “Grade 3 (classification and statistics of the grade of pesticide damage; number of plants)” value ([1]; mesotrione 52.5 g ai/ha) was 0. The Resistance evaluation ([1]; mesotrione 105 g ai/ha) was “Moderately”, the Scores ([1]; mesotrione 105 g ai/ha) was 33 and the “Grade 0 (classification and statistics of the grade of pesticide damage; number of plants)” value ([1]; mesotrione 105 g ai/ha) was 3. The “Grade 1 (classification and statistics of the grade of pesticide damage; number of plants)” value ([1]; mesotrione 105 g ai/ha) was 10, the “Grade 2 (classification and statistics of the grade of pesticide damage; number of plants)” value ([1]; mesotrione 105 g ai/ha) was 3 and the “Grade 3 (classification and statistics of the grade of pesticide damage; number of plants)” value ([1]; mesotrione 105 g ai/ha) was 0. For the same molecule, the “Classification and statistics of the grade of pesticide damage: Grade 0” value ([2]; topramezone 25 g ai/ha (1×)) was 16, the “Classification and statistics of the grade of pesticide damage: Grade 1” value ([2]; topramezone 25 g ai/ha (1×)) was 0 and the “Classification and statistics of the grade of pesticide damage: Grade 2” value ([2]; topramezone 25 g ai/ha (1×)) was 0. For the same molecule, the “Classification and statistics of the grade of pesticide damage: Grade 3” value ([2]; topramezone 25 g ai/ha (1×)) was 0, the “Classification and statistics of the grade of pesticide damage: Grade 0” value ([2]; topramezone 100 g ai/ha (4×)) was 10 and the “Classification and statistics of the grade of pesticide damage: Grade 1” value ([2]; topramezone 100 g ai/ha (4×)) was 5. The “Classification and statistics of the grade of pesticide damage: Grade 2” value ([2]; topramezone 100 g ai/ha (4×)) was 1, the “Classification and statistics of the grade of pesticide damage: Grade 3” value ([2]; topramezone 100 g ai/ha (4×)) was 0 and the Scores ([2]; topramezone 25 g ai/ha (1×)) was 0. The Scores ([2]; topramezone 100 g ai/ha (4×)) was 15, the Resistance evaluation ([2]; topramezone 25 g ai/ha (1×)) was “highly” and the Resistance evaluation ([2]; topramezone 100 g ai/ha (4×)) was “highly”. For the same molecule, the Resistance evaluation [3, 4] was “Moderately”, the “Scores (pesticide damage)” value [3, 4] was 25 and the “Classification and statistics of the grade of pesticide damage: Grade 0 (number of plants)” value [3, 4] was 5. The “Classification and statistics of the grade of pesticide damage: Grade 1 (number of plants)” value [3, 4] was 10, the “Classification and statistics of the grade of pesticide damage: Grade 2 (number of plants)” value [3, 4] was 1 and the “Classification and statistics of the grade of pesticide damage: Grade 3 (number of plants)” value [3, 4] was 0. For the same molecule, the Resistance evaluation [3, 5] was “Poorly”, the “Scores (pesticide damage)” value [3, 5] was 38 and the “Classification and statistics of the grade of pesticide damage: Grade 0 (number of plants)” value [3, 5] was 3. The “Classification and statistics of the grade of pesticide damage: Grade 1 (number of plants)” value [3, 5] was 8, the “Classification and statistics of the grade of pesticide damage: Grade 2 (number of plants)” value [3, 5] was 5 and the “Classification and statistics of the grade of pesticide damage: Grade 3 (number of plants)” value [3, 5] was 0.
